The values below come from PMC7583046, “The Paralogue of the Intrinsically Disordered Nuclear Protein 1 Has a Nuclear Localization Sequence that Binds to Human Importin α3” (International Journal of Molecular Sciences, 2020).

The conditions of data set [1]: ref [25]; cited from earlier work.
A further data set relates to ∆Impα3. Particulars: CD 222 nm, 60 K/h, 50 mM phosphate pH 7.0, not reversible. The text has this:
Far-UV CD spectra were collected on a Jasco J810 spectropolarimeter (Jasco, Tokyo, Japan) with a thermostated cell holder, and interfaced with a Peltier unit at 298 K. The instrument was periodically calibrated with (+)-10-camphorsulphonic acid. A cell with a path length of 0.1 cm was used (Hellma, Kruibeke, Belgium). All spectra were corrected by subtracting the corresponding baseline. The concentration of each polypeptide (importin species and either NLS-NUPR1L or intact NUPR1L) was the same as that used in the fluorescence experiments (Section 4.4).

The conditions of data set [2]: cited from earlier work.
Data set [3] addresses T1, ∆Impα3, truncated species of human importin α3 (residues 64-521) depleted of the IBB (human, UniProt O00629 64-521).
T1 construct: source: E. coli BL21 (DE3), purified (codon-optimized)
T1 sequence (looked up): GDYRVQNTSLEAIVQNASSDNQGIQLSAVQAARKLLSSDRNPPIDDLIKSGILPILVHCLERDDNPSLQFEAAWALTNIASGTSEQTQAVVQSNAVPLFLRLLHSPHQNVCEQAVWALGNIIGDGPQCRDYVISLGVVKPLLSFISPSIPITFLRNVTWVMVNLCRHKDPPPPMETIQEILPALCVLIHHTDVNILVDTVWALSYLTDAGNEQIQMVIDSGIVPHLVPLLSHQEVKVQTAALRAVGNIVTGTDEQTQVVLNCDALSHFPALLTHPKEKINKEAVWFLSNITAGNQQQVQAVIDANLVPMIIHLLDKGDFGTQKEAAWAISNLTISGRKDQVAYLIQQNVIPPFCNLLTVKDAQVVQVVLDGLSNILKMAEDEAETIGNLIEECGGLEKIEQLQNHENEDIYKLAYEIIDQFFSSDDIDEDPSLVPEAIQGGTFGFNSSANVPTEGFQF
Put plainly: other fluorescence titration; importin (0-10 μM) added to a fixed concentration of NUPR1L (8 μM) or NLS-NUPR1L (8.5 μM); 50 mM phosphate buffer, pH 7.0, 298 K; excitation at 280 nm; apparent dissociation constants. Particulars: both partners purified.

The target of data set [4] is T2, human importin α3 (Impα3), intact (human, UniProt O00629 1-521).
T2 construct: Human importin α3 (KPNA4), intact protein with the IBB domain, residues 1-521; Purification as for ∆Impα3; also called KPNA4; source: E. coli BL21 (DE3), purified (codon-optimized DNA synthesized by NZYtech, in the pHTP1 vector)
T2 sequence (looked up): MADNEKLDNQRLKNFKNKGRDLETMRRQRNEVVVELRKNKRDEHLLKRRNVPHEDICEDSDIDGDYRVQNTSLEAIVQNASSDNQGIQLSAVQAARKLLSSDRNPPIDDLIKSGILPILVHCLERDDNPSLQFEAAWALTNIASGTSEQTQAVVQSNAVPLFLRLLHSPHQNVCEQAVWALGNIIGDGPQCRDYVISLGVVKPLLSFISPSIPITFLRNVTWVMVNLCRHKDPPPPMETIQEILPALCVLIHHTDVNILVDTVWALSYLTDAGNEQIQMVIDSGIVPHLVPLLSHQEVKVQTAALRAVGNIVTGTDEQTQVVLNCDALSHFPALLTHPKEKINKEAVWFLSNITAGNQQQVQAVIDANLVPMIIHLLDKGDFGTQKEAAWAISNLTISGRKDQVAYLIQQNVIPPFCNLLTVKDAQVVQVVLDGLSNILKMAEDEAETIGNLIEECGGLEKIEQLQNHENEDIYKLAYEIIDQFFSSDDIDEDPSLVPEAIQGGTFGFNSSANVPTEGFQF
The data set is described as above. Particulars: both partners purified.

A further data set deals with prothymosin α. Particulars: ref [14]; cited from earlier work. The text has this: In this aspect, NLS-NUPR1L behaves not differently from any other NLS region of a well-folded protein [15, 20, 22, 40]; that is, it is disordered both in isolation and when participating in forming the complex with impo ...
Data set [5] concerns the target T1, ∆Impα3, truncated species of human …. In words: ITC; Impα3 or ∆Impα3 (10-20 μM) in the cell, NLS-NUPR1L (150-300 μM) in the syringe; Tris 50 mM, pH 8, 298 K; single ligand binding site model. Particulars: both partners purified.
Data set [6] addresses T2, human importin α3 (Impα3), intact. Described as above. Particulars: both partners purified.
The target of data set [7] is T1, ∆Impα3, truncated species of human …. In words: other fluorescence titration; importin (0-10 μM) added to a fixed concentration of NUPR1L (8 μM) or NLS-NUPR1L (8.5 μM); 50 mM phosphate buffer, pH 7.0, 298 K; excitation at 280 nm; apparent dissociation constants. Particulars: both partners purified. This is another data set of the same source.
The target of data set [8] is T2, human importin α3 (Impα3), intact. The description is as above. Particulars: both partners purified. The source holds these as a separate data set.

B1: Impα3: Human importin α3 isoform (residues 1–521) (protein, UniProt O00629 1-521, looked up)
chain: MADNEKLDNQRLKNFKNKGRDLETMRRQRNEVVVELRKNKRDEHLLKRRNVPHEDICEDSDIDGDYRVQNTSLEAIVQNASSDNQGIQLSAVQAARKLLSSDRNPPIDDLIKSGILPILVHCLERDDNPSLQFEAAWALTNIASGTSEQTQAVVQSNAVPLFLRLLHSPHQNVCEQAVWALGNIIGDGPQCRDYVISLGVVKPLLSFISPSIPITFLRNVTWVMVNLCRHKDPPPPMETIQEILPALCVLIHHTDVNILVDTVWALSYLTDAGNEQIQMVIDSGIVPHLVPLLSHQEVKVQTAALRAVGNIVTGTDEQTQVVLNCDALSHFPALLTHPKEKINKEAVWFLSNITAGNQQQVQAVIDANLVPMIIHLLDKGDFGTQKEAAWAISNLTISGRKDQVAYLIQQNVIPPFCNLLTVKDAQVVQVVLDGLSNILKMAEDEAETIGNLIEECGGLEKIEQLQNHENEDIYKLAYEIIDQFFSSDDIDEDPSLVPEAIQGGTFGFNSSANVPTEGFQF
modifications: full-length
In the case of B1, the “solubility (relative to other importin species)” value in data set [1] is listed as “larger solubility”.

B2: ∆Impα3: Truncated species of Impα3 (residues 64-521) depleted of the IBB (protein, UniProt O00629 64-521, looked up, fragment)
chain: GDYRVQNTSLEAIVQNASSDNQGIQLSAVQAARKLLSSDRNPPIDDLIKSGILPILVHCLERDDNPSLQFEAAWALTNIASGTSEQTQAVVQSNAVPLFLRLLHSPHQNVCEQAVWALGNIIGDGPQCRDYVISLGVVKPLLSFISPSIPITFLRNVTWVMVNLCRHKDPPPPMETIQEILPALCVLIHHTDVNILVDTVWALSYLTDAGNEQIQMVIDSGIVPHLVPLLSHQEVKVQTAALRAVGNIVTGTDEQTQVVLNCDALSHFPALLTHPKEKINKEAVWFLSNITAGNQQQVQAVIDANLVPMIIHLLDKGDFGTQKEAAWAISNLTISGRKDQVAYLIQQNVIPPFCNLLTVKDAQVVQVVLDGLSNILKMAEDEAETIGNLIEECGGLEKIEQLQNHENEDIYKLAYEIIDQFFSSDDIDEDPSLVPEAIQGGTFGFNSSANVPTEGFQF
Regarding B2, in data set [1], the “solubility (relative to other importin species)” value is “lower solubility”. For the same molecule, the “apparent thermal midpoint of unfolding of isolated ∆Impα3” value with ∆Impα3 (absence of NUPR1L) came to 317 K.

B3: NUPR1L, the NUPR1-like paralogue (intact) (natural protein, UniProt A6NF83 1-97, looked up)
chain: MEAPAERALPRLQALARPPPPISYEEELYDCLDYYYLRDFPACGAGRSKGRTRREQALRTNWPAPGGHERKVAQKLLNGQRKRRQRQLHPKMRTRLT
notes: NUPR1L, 97-residue-long paralogue of NUPR1, intact protein; one tryptophan (Trp62) and five tyrosines; concentrations are in protomer units; also called intact NUPR1L; source: expressed and purified as described [14]
Consider B3, for which the “self-association state in solution” value in data set [2] (intact protein in solution, no reference at the place) is “oligomer”. The tendency to aggregate entry in data set [2] (intact protein, ref [14]) was “high tendency to aggregate”. In addition, the Kd was determined as 5 ± 1 µM in data set [3] and 4 ± 0.7 µM in [4]. The “involvement of Trp62 in binding to prothymosin α” value in the data set with prothymosin α is “Trp62 is also involved in the binding of NUPR1L to prothymosin α”. Further, in the data set on ∆Impα3 (15 μM NUPR1L, 5 μM importin), the “apparent thermal midpoint of unfolding of ∆Impα3, in presence of NUPR1L” value was determined as 323 K.

B4: NLS-NUPR1L, peptide of the nuclear localization sequence of NUPR1L (residues 51-74) (peptide)
peptide: Ac-RTRREQALRTNWPAPGGHERKVAQ-NH2
notes: NUPR1L residues Arg51 to Gln74, the predicted NLS region; numbering as in intact NUPR1L; also called NLS-NUNPR1L; source: synthetic peptide (NZYtech, purity of 95%)
For the molecule B4, the Kd in data set [5] amounted to 5.5 ± 0.9 µM; in data set [6] it was 12 ± 2 µM; in [7], 5 ± 2 µM; in data set [8] it was 3000 ± 1000 nM. Moreover, the dH in data set [5] was -2.4 ± 0.5 kcal/mol; in data set [6], -3.1 ± 0.5 kcal/mol. Moreover, the results for the “stoichiometry N” value in data set [5] and in data set [6] were 0.75 ± 0.06 and 1.04 ± 0.05, respectively.
